Results taken from patent US20040131585A1.

Target: human CXCR4 on intravenously injected human CD34+ angioblasts (human) (UniProt P61073)
Test: cell-based or functional assay

UniProt P61073, sequence (P61073 whole entry): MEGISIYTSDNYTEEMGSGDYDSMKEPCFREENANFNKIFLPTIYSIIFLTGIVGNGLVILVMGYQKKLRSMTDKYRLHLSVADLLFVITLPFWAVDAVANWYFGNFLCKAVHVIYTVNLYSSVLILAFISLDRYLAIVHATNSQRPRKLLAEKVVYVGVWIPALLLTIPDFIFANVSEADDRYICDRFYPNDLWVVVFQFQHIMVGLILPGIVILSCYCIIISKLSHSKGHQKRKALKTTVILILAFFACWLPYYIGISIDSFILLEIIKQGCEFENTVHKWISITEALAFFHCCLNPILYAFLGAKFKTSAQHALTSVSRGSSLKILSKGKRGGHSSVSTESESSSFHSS

increase in trafficking of CD34+ human angioblasts to ischemic rat myocardium, with co-administered mAb against human CXCR4: 24%
increase in trafficking of CD34+ human angioblasts to ischemic rat myocardium, with co-administered mAb against rat SDF-1: 17%
Substance: rat SDF-1 (stromal-derived factor-1) (ligand)
